B1: Lysosomal cobalamin transport escort protein LMBD1 (Homo sapiens), Q9NUN5 (parent)
chain: MATSGAASAELVIGWCIFGLLLLAILAFCWIYVRKYQSRRESEVVSTITAIFSLAIALITSALLPVDIFLVSYMKNQNGTFKDWANANVSRQIEDTVLYGYYTLYSVILFCVFFWIPFVYFYYEEKDDDDTSKCTQIKTALKYTLGFVVICALLLLVGAFVPLNVPNNKNSTEWEKVKSLFEELGSSHGLAALSFSISSLTLIGMLAAITYTAYGMSALPLNLIKGTRSAAYERLENTEDIEEVEQHIQTIKSKSKDGRPLPARDKRALKQFEERLRTLKKRERHLEFIENSWWTKFCGALRPLKIVWGIFFILVALLFVISLFLSNLDKALHSAGIDSGFIIFGANLSNPLNMLLPLLQTVFPLDYILITIIIMYFIFTSMAGIRNIGIWFFWIRLYKIRRGRTRPQALLFLCMILLLIVLHTSYMIYSLAPQYVMYGSQNYLIETNITSDNHKGNSTLSVPKRCDADAPEDQCTVTRTYLFLHKFWFFSAAYYFGNWAFLGVFLIGLIVSCCKGKKSVIEGVDEDSDISDDEPSVYSA
partner: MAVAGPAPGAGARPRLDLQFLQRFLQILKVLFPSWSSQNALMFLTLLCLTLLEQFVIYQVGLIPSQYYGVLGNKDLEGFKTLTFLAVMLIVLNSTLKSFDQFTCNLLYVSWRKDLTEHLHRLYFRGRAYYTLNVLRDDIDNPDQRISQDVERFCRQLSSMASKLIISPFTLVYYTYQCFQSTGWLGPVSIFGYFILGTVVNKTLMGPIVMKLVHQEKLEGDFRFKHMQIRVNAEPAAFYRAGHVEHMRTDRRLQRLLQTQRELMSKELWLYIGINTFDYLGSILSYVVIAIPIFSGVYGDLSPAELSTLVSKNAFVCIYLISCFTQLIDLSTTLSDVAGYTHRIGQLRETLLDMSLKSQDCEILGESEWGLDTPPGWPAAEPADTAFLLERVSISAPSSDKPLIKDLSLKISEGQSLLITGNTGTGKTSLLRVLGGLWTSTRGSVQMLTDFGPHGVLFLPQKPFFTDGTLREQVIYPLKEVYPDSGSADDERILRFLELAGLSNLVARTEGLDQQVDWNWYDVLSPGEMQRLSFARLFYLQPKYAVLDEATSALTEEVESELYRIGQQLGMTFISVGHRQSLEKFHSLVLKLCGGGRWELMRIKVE
B2: Lysosomal cobalamin transporter ABCD4 (Homo sapiens), O14678 (parent)
chain: B1 partner
partner: B1 chain

Variants of: B1
Conditions: with abcd4_human ABCD4, O14678

With Y232A as the variant, how does the “effect of a mutation on the interaction” value read?
The value was “decreasing interaction strength”.

Variants of: B2
Conditions: with lmbd1_human LMBRD1, Q9NUN5

With G426A;K427L as the variant, how does the “effect of a mutation on the interaction” value read?
The value was “disrupting interaction strength”.

How did the “effect of a mutation on the interaction” value turn out when D548N was run?
Its value is “decreasing interaction strength”.

How did the “effect of a mutation on the interaction” value turn out when N141K was run?
The value was “decreasing interaction strength”.

Which “effect of a mutation on the interaction” value does the source give for G426A here?
The value was “decreasing interaction strength”.

For K427L, which “effect of a mutation on the interaction” value is on record?
Its value is “decreasing interaction strength”.

Which “effect of a mutation on the interaction” value does the source give for R432Q here?
The value was “decreasing interaction strength”.

Variants of: B2
Conditions: with lmbd1_human LMBRD1, Q9NUN5
Remark: another data set of the same source

With G426A;K427L as the variant, how does the “effect of a mutation on the interaction” value read?
Its value is “decreasing interaction strength”.
